Laboratory results reported in article PMC8892280 (Proceedings of the National Academy of Sciences of the …, 2022).
Numbering of substitutions follows the chain as printed.

B1: m-TAMRA-labeled Nb42 (VHH)
VHH: QVQLVESGGGLVQAGGSLRLSCAASGDVNYAVGWFRQAPRKEREFVAAINWRGDNTDYTDSVKGRFTISRDNAKNTVYLQMNSLKPEDTAVYYCAAKSAPYWYSDIAPDYWGQGTQVTVSS
B2: Nb36 (VHH)
VHH: QVQLVESGGGLVQPGGSLRLSCAASGSIRSITTSAWFRQPPGKQRELVAGISSGTSTNYADSVKGRFTISRDNAKNTVYLQMNSLKPEDTAVYYCHVWISGTWYSGQGTQVTVSS
B3: Nb38 (VHH)
VHH: B2 VHH with T32A, F37Y, S56T, V97A, Y104I
B4: Nb17 (VHH)
VHH: QVQLVESGGGLVQPGGSLRLSCAASGSNIGYMAWYRQAPGSQRELVARIASGGSANYADSVKGRFTISRDNVKNTVYLHMNSLKPVDTAVYYCHADAWYNSRWSDYWGQGTQVTVSS
B5: Nb23 (VHH)
VHH: QVQLVESGGGLVQAGGSLRLSCAASGRTFSRYTMGWFRQAPGKDREFVARITTSGAVTTYADSAKGRFTISRDNAKNTVYLQMNTLKPEDTAVYYCAAGQGQLSSQSRFVDYWGQGTQVTVSS
B6: Nb22 (VHH)
VHH: QVQLVESGGGLVQAGGSLRLSCAASGRTFSSYTMGWFRQAPGKEREFVAAIRWSGGSTYYADSVKGRFTISRDNAKNTVYLQMNSLKPEDTAVYYCAASDRGGFIATSGGWMDYWGKGTQVTVSS
B7: Nb39 (VHH)
VHH: QVQLVESGGGLVQAGGSLRLSCRASGGTFSTYAMGWFRQVPGKERETVAAVKWSGDMTYYADSVKGRFTISRDNAKNTVYLQMNSLRPEDTAVYYCAARRGLSYYRGPSEYDYWGQGTQVTVSS
B8: Nb42 (VHH)
VHH: B1 VHH
B9: Nb6 (VHH)
VHH: QVQLVESGGGLVQAGGSLRLSCAASGSIFSPTAMGWYRQAPGKERELVAGITSGGYTNYRNFARGRFTISRDNAKKTVYLQMNSLNPEDTAVYYCNTLTISWSWGQGTQVTVSS
B10: Nb40 (VHH)
VHH: QVQLVESGGGLVQPGGSLRLSCVASGTIYAINRMGWYRQAPGKQRELVALITLGGGTNYGDSVKGRFTISRDNAKNTGYLQMNSLKPEDTAVYYCKVESSGYTDVFWGQGTQVTVSS
B11: Nb1 (VHH)
VHH: QVQLVESGGGLVQAGGSLRLSCVASGRIFSGNAMGWYRQAPGRQRELVAGITNGGYTNYRQFVKGRFTISRDNAKRTVYLQMNSLKPEDTAVYYCNALDREARQVDYWGQGTQVTVSS
B12: m-TAMRA-labeled Nb36 (VHH)
VHH: B2 VHH
B13: m-TAMRA-labeled Nb38 (VHH)
VHH: B2 VHH with T32A, F37Y, S56T, V97A, Y104I
B14: m-TAMRA-labeled Nb22 (VHH)
VHH: B6 VHH
B15: m-TAMRA-labeled Nb39 (VHH)
VHH: B7 VHH
B16: m-TAMRA-labeled Nb6 (VHH)
VHH: B9 VHH
B17: m-TAMRA-labeled Nb17 (VHH)
VHH: B4 VHH
B18: m-TAMRA-labeled Nb40 (VHH)
VHH: B10 VHH
B19: m-TAMRA-labeled Nb1 (VHH)
VHH: B11 VHH

Molecular target: T1, full-length human LRRK2 (leucine-rich repeat kinase 2) (human, UniProt Q5S007)
Assay: MST

T1 sequence (Q5S007 whole entry): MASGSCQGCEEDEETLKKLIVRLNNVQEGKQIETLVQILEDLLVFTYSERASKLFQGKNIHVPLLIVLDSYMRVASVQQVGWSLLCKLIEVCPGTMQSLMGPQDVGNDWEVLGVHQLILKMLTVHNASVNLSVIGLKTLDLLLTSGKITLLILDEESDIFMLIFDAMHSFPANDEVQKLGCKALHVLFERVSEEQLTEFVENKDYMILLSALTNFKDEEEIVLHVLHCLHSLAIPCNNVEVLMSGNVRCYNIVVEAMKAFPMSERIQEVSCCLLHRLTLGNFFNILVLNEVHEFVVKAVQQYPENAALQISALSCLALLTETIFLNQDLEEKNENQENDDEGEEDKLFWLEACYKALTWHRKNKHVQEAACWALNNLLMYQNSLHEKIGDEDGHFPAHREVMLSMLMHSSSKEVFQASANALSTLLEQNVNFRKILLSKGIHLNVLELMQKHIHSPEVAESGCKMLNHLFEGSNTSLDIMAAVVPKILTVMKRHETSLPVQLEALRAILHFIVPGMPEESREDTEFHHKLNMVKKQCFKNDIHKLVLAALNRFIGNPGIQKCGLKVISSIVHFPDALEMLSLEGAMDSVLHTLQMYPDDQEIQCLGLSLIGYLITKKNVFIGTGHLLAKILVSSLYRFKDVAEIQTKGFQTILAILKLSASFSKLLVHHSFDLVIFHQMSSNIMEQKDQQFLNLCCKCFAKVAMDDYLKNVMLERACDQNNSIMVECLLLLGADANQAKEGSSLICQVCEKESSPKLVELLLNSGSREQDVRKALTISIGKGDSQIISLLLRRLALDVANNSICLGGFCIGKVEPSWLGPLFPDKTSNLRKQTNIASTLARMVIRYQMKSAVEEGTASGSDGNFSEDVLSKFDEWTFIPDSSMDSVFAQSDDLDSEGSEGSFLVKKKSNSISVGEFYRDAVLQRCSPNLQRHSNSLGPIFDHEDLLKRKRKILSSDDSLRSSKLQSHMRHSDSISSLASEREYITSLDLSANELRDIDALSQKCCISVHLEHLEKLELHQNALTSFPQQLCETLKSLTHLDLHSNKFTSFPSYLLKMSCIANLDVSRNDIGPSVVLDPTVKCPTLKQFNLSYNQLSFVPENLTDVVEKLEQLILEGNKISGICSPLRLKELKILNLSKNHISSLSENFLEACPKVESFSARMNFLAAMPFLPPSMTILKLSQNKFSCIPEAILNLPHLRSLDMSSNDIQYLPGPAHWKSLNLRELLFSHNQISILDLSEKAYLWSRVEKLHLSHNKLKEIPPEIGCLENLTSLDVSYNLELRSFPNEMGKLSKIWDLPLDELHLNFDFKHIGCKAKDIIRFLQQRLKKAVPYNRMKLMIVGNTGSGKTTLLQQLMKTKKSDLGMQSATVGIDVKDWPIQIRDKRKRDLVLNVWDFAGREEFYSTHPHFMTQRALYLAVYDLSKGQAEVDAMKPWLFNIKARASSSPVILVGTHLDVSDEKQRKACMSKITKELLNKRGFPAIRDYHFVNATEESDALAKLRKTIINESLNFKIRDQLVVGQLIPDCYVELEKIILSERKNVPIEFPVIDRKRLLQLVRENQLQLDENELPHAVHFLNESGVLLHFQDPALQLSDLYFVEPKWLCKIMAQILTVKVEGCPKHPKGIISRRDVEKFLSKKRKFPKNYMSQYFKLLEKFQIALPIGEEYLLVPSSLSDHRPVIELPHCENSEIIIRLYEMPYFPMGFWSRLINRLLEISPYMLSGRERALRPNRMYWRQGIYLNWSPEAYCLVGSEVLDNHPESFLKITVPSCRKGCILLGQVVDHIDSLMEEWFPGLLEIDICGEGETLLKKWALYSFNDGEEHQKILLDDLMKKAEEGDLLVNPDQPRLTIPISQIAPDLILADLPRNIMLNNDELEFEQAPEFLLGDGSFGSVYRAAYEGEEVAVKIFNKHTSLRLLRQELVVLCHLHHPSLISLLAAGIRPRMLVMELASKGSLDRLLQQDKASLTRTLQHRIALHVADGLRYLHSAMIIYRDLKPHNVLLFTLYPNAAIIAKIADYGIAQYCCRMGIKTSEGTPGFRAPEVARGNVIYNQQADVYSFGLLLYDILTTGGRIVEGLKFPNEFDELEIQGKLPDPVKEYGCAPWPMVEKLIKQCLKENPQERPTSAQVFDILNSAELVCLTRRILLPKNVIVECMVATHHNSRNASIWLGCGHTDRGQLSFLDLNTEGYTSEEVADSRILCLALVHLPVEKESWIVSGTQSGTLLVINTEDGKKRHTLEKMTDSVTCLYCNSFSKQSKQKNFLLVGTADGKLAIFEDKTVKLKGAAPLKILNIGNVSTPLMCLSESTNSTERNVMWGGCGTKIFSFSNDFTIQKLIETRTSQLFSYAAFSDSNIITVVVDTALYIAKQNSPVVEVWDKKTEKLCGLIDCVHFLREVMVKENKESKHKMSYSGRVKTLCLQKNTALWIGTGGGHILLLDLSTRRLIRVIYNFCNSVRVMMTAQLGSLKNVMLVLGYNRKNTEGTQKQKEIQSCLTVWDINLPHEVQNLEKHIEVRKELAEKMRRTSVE

Binder	Kd [nM]
B1	94 ± 30

Molecular target: LRRK2 N-terminal armadillo (ARM) domain construct (Homo sapiens, UniProt Q5S007)
Assay: ELISA

Chain of LRRK2 N-terminal armadillo (ARM) domain construct (Q5S007 whole entry, looked up, tested part not stated): as the sequence (Q5S007 whole entry) above

Binder	binding result
B2	no binding
B3	no binding
B4	no binding

Molecular target: T1, full-length human LRRK2 (leucine-rich …)
Assay: ELISA

Binder	EC50 [nM]	EC50 in presence of Rab8a (20 µM) [nM]
B4	~3	~5

Molecular target: endogenous (mouse) LRRK2 (Mus musculus, UniProt Q5S006)
Assay: pull-down

Binder	binding result
B2	binds
B3	binds
B5	binds
B6	binds
B7	binds
B8	binds
B9	binds
B4	binds
B10	binds
B11	binds

Molecular target: LRRK2 RocCOR domain construct (Homo sapiens, UniProt Q5S007)
Assay: ELISA

Chain of LRRK2 RocCOR domain construct (Q5S007 whole entry, looked up, the tested form may be a part): as the sequence (Q5S007 whole entry) above

Binder	binding result
B2	no binding
B3	no binding
B7	no binding
B4	no binding

Molecular target: LRRK2 Roc domain (Homo sapiens, UniProt Q5S007)
Assay: ELISA

Chain of LRRK2 Roc domain (Q5S007 1328-1511): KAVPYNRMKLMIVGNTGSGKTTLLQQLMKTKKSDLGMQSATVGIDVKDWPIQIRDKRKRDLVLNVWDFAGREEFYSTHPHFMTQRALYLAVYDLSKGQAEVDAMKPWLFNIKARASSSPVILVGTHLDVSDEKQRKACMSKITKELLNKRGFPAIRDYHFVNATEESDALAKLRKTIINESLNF

Binder	binding result
B2	no binding
B3	no binding
B7	no binding
B4	no binding

Molecular target: LRRK2 C-terminal subdomain of COR (COR-B) (Homo sapiens, UniProt Q5S007)
Assay: ELISA

Chain of LRRK2 C-terminal subdomain of COR (COR-B) (Q5S007 whole entry, looked up, tested part not stated): as the sequence (Q5S007 whole entry) above

Binder	binding result
B2	no binding
B3	no binding
B7	no binding
B4	no binding

Molecular target: LRRK2 kinase-WD40 (K-WD40) two-domain construct (Homo sapiens, UniProt Q5S007)
Assay: ELISA

Chain of LRRK2 kinase-WD40 (K-WD40) two-domain construct (Q5S007 whole entry, looked up, tested part not stated): as the sequence (Q5S007 whole entry) above

Binder	binding result
B2	no binding
B3	no binding
B7	no binding
B4	no binding

Molecular target: LRRK2 Roc-COR-Kinase-WD40 (RCKW) domain construct (Homo sapiens, UniProt Q5S007, biotinylated (in the BLI experiment))
Assay: BLI

Chain of LRRK2 Roc-COR-Kinase-WD40 (RCKW) domain construct (Q5S007 whole entry, looked up, tested part not stated): as the sequence (Q5S007 whole entry) above

Binder	binding result	Kd [nM]
B2	no binding	–
B3	no binding	–
B5	–	17 ± 7
B6	–	5 ± 1
B7	no binding	–
B8	–	18 ± 2
B9	–	5 ± 1
B4	no binding	–
B10	–	2.6 ± 0.3
B11	–	39 ± 4

Molecular target: T1, full-length human LRRK2 (leucine-rich …)
Assay: enzyme kinetics

Binder	Ki [µM]	Kiu^app (apparent Ki for ATP-bound LRRK2) [µM]
B5	9	72
B9	5	8
B11	16	30

Molecular target: T1, full-length human LRRK2 (leucine-rich …)
Assay: MST
Remark: another data set of the same source

Binder	Kd [nM]
B12	78 ± 25
B13	48 ± 11
B14	145 ± 55
B15	79 ± 19
B16	83 ± 24
B17	67 ± 24
B18	26 ± 10
B19	91 ± 28

Molecular target: T1, full-length human LRRK2 (leucine-rich …)
Assay: BLI

Binder	Kd [nM]
B2	16 ± 8
B3	37 ± 4
B5	20 ± 5
B6	10 ± 1
B7	12 ± 3
B8	58 ± 18
B9	8 ± 1
B4	2 ± 0.3
B10	2.5 ± 0.3
B11	55 ± 12
